Columns and labels:
[1] = target: steroid receptor coactivator 3 (SRC3), full-length, Strep II tagged (human) (UniProt Q9Y6Q9); test: SEC-MALS
[2] = target: progesterone receptor isoform A (PR-A), full-length, Strep II tagged (human) (UniProt P06401); test: SEC-MALS
Chain of progesterone receptor isoform A (PR-A), full-length, Strep II tagged (human) (P06401 165-933): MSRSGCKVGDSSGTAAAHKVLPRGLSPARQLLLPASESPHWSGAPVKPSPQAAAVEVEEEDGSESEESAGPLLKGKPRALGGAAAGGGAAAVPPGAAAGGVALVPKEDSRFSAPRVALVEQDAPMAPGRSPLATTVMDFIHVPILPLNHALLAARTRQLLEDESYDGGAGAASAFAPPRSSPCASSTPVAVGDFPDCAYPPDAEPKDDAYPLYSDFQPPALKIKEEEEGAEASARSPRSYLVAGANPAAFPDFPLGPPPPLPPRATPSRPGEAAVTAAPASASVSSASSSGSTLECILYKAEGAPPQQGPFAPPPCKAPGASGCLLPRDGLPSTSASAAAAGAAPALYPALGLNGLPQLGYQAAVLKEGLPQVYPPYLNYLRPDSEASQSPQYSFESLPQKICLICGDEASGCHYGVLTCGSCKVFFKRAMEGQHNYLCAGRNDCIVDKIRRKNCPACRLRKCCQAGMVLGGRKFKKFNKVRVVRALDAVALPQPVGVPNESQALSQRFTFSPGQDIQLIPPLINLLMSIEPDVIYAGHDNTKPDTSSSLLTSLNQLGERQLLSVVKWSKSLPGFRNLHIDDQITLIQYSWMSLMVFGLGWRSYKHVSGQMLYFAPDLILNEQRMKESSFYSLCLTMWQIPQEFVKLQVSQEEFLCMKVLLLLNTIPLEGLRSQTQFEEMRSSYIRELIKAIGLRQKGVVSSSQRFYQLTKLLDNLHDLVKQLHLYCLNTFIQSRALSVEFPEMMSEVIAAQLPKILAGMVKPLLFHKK

Chain of steroid receptor coactivator 3 (SRC3), full-length, Strep II tagged (human) (Q9Y6Q9 whole entry, canonical isoform): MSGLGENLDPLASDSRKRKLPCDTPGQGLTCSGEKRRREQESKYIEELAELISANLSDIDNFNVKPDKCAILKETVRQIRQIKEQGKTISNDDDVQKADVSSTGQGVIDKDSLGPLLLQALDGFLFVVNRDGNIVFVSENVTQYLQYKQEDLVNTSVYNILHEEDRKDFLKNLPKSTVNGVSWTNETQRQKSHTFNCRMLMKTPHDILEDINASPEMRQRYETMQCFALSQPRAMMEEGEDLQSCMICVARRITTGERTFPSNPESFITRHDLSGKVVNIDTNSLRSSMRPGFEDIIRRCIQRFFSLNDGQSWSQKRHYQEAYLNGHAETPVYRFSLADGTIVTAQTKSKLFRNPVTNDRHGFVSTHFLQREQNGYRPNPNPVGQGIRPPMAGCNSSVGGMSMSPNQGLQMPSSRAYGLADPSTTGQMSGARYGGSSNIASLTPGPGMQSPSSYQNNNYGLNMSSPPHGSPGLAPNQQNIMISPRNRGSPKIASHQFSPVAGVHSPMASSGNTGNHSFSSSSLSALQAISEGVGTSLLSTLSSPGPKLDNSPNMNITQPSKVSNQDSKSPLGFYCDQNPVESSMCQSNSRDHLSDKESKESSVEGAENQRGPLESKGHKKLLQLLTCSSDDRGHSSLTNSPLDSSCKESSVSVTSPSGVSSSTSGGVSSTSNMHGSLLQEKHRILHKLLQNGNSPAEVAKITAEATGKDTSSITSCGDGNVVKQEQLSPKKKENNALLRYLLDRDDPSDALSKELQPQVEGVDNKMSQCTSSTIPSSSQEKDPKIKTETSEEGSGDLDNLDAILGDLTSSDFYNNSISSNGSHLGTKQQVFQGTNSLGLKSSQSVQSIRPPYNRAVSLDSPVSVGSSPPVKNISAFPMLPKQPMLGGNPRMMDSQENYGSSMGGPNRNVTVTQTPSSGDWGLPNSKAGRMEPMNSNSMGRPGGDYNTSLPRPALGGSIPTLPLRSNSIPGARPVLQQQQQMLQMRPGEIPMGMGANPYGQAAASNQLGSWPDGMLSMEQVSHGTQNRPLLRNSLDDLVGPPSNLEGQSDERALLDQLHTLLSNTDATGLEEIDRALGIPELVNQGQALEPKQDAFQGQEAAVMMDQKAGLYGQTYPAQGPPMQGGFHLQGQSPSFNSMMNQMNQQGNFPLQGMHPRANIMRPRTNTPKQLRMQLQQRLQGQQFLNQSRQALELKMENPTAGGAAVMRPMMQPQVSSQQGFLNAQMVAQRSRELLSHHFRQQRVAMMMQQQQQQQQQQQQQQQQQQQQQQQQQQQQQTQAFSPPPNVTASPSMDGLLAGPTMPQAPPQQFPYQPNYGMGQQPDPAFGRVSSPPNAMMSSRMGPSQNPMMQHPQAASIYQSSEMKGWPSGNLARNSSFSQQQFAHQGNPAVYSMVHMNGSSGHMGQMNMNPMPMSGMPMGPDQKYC

- stoichiometry N (p300 per SRC3) [1]: 1
- stoichiometry N (p300 per PR-A) [2]: 0.5
Substance: histone acetyltransferase p300, full-length, Strep II tagged, Q09472 1-2414
